Assay results as given in patent US20120149881A1 (Genentech, published 2012).

How the values were obtained:
[1] = molecular target: T1, human IgE with the M1′ sequence (long form of membrane IgE) expressed on transduced BJAB or Daudi cells (human, UniProt P01854 116-546); assay: number printed in the titration panel; FIG. 3M calls these numbers 'Scatchard Results' (BJAB-Long cells)
T1 construct: Full-length heavy and light chains of the U266 IgE B cell receptor, retrovirally expressed; also called IgE/M1′; IgE-M1′
Protocol: In addition to relative affinity determinations by antibody titration and FACs detection, we also determined affinities of selected anti-MP antibodies to BJAB cell lines expressing IgE long form using Scatchard analysis. BJAB-Long cells were prepared for binding in cold Binding buffer composed of base media, with 10 mM HEPES pH 7.4, and 2% FBS as well as 40 μg/ml human IgG. Cells were diluted to a concentration of 1.7×10⁶ cells/ml, and kept on ice until added to the assay. The antibodies were iodinated with Iodogen method. Various concentrations of unlabelled antibody were prepared in triplicate, using a 1:2 dilution starting with the saturation concentration and ending at a concentration of zero, with a total of 14 concentrations. Iodinated antibody of a single concentration was added to all dilutions of the competitor unlabelled antibody. Lastly 250,000 BJAB-Long cells were added to each mixture of iodinated and unlabelled antibody. The samples were incubated at 4° C. for 4 hours, shaking. Each sample was then collected and filtered on a membrane, washed at least 3 times with binding buffer, allowed to dry and then measured for 1 minute using a Perkin Elmer Wizard 1470 Auto Gamma Counter.

[2] = molecular target: T2, human IgE CH3-CH4-M1′/Fc fusion protein (human); assay: SPR Biacore 2000, IgG immobilized, M1′-Fc analyte
T2 construct: also called M1′ (immobilized)

[3] = molecular target: T1, human IgE with the M1′ sequence (long …); assay: competitive ECL binding on BJAB-IgE/M1′ cells vs biotinylated 26A11 or 47H4, 1st IC50 column
[4] = molecular target: T1, human IgE with the M1′ sequence (long …); assay: competitive ECL binding on BJAB-IgE/M1′ cells vs biotinylated 26A11 or 47H4, 2nd IC50 column
[5] = molecular target: T1, human IgE with the M1′ sequence (long …); assay: Scatchard analysis on cells expressing human IgE/M1′
Protocol: The BJAB or Daudi cells expressing various forms of IgE with or without M1′ (Human, Rhesus, Cyno) were prepared for binding in cold Binding buffer composed of base media, with 10 mM HEPES pH 7.4, and 2% FBS as well as 40 ug/ml human IgG. Cells are diluted to concentration of 1.7×10⁶ cells/ml, and kept on ice until they are added to the assay. The proteins/antibodies are iodinated with the Iodogen method. Various concentrations of cold protein are prepared in triplicate, using a 1:2 dilution starting with the saturation concentration and ending at a concentration of zero, with a total of 14 concentrations. Hot protein of a single concentration is added to all dilutions compete with the cold protein. Lastly the cells are added to the hot and cold protein mixture, 250,000 cells per sample were used. Assay is kept at 4° C. for 4 hours, shaking. Each sample is then collected and filtered on membrane, washed at least 3 times with binding buffer, allowed to dry and then counted for 1 minute using Perkin Elmer Wizard 1470 Auto Gamma Counter.

[6] = molecular target: T2, human IgE CH3-CH4-M1′/Fc fusion protein; assay: SPR Biacore A100, M1′ immobilized
[7] = molecular target: T2, human IgE CH3-CH4-M1′/Fc fusion protein; assay: SPR Biacore 2000, M1′-Fc immobilized

T1 sequence (P01854 116-546 I515L limits assumed): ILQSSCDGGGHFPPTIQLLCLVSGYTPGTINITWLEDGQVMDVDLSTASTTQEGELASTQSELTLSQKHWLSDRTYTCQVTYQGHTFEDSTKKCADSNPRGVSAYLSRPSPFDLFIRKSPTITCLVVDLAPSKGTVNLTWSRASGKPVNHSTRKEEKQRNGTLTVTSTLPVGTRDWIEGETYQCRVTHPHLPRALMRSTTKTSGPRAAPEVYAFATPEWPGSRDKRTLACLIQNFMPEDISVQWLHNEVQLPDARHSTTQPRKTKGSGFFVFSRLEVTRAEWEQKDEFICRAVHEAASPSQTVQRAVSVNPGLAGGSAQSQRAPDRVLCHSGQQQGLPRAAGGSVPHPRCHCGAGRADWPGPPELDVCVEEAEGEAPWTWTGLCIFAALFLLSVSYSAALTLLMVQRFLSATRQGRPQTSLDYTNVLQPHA
T2 sequence (chain, as listed by the source limits assumed): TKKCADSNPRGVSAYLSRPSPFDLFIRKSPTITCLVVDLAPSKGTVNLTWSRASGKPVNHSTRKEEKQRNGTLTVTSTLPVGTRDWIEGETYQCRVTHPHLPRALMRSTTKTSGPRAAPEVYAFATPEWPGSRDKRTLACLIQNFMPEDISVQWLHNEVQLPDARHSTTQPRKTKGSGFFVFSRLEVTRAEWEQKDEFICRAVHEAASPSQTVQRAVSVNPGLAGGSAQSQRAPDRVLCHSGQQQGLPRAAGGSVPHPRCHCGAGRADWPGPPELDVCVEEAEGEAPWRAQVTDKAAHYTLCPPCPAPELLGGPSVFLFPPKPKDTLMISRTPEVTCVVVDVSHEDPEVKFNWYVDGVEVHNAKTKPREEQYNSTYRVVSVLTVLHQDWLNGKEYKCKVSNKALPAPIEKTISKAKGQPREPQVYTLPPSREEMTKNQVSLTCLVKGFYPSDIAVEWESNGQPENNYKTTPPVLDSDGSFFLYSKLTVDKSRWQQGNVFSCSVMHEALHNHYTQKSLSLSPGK

Kd [1]	Kd [2]	IC50 [3]	IC50 [4]	Kd [5]	Kd [6]	Kd [7]	Binder
16.8 nM	–	–	–	–	–	–	murine anti-IgE/M1′ antibody 45C1 (antibody, V domains shown, murine hybridoma antibody; also called 45C1.6.14) VH: QIQLVQSGPELKKPGETVKISCKASGYTFTNYGMNWVKQAPGKGLKWMGWINTYTGEPTYVDDFKGRFAFSLETSASTAYLQINNLKNEDMATYFCARGIYYDNDDIYWGQGTILTVSS VL: not shown
2.7 nM	–	–	–	–	–	–	murine anti-IgE/M1′ antibody 1C11 (antibody, V domains shown, murine hybridoma antibody; also called 1C11.10.20) VH: QVQLQQSGAELVRPGASVTLSCKASGYTFTDFEMHWVKQTPVHGLEWIGAIAPETGTSAYNQKFRGKATLTADISSSTAYMDLRSLTSEDSAVYYCTIYYAAPWFAYWGQGTLVTVSS VL: DIVMSQSPSSLAVSVGEKVTMSCKSSQSLLYSSNQKNYLAWYQQKPGQSPKLLIYWASTRESGVPDRFTGSGSVTDFPLTISSVKAEDLAVYYCQQYYSYPYTFGGGTKVEIKR
–	3.1 nM	12 nM	18 nM	0.37 nM	7.8 nM	–	humanized anti-IgE/M1′ antibody 47H4.v1 (antibody, V domains shown, direct CDR graft, produced as IgG) VH: EVQLVESGGGLVQPGGSLRLSCAASGFTFSDYGMAWVRQAPGKGLEWVAFISDLAYTIYYADTVTGRFTISRDNSKNTLYLQMNSLRAEDTAVYYCARDNWDAMDYWGQGTLVTVSS VL: DIQMTQSPSSLSASVGDRVTITCRSSQSLVHNNGNTYLHWYQQKPGKAPKLLIYKVSNRFSGVPSRFSGSGSGTDFTLTISSLQPEDFATYYCSQNTLVPWTFGQGTKVEIKR
–	–	~7600 nM	–	–	69 nM	–	humanized anti-IgE/M1′ antibody 47H4.v3 (antibody, V domains shown, produced as IgG) VH: EVQLVESGGGLVQPGGSLRLSCAASGFTFSDYGIAWVRQAPGKGLEWVAFISDLAYTIYYADTVTGRFTISRDNSKNTLYLQMNSLRAEDTAVYYCARDNWDALDYWGQGTLVTVSS VL: DIQMTQSPSSLSASVGDRVTITCRSSQSLVHNNGNTYLHWYQQKPGKAPKLLIYKVSNRFSGVPSRFSGSGSGTDFTLTISSLQPEDFATYYCSQNTLVPWTFGQGTKVEIKR
–	2.8 nM	38 nM	–	0.54 nM	7.4 nM	–	humanized anti-IgE/M1′ antibody 47H4.v2 (antibody, V domains shown, produced as IgG) VH: EVQLVESGGGLVQPGGSLRLSCAASGFTFSDYGMAWVRQAPGKGLEWVAFISDLAYTIYYADTVTGRFTISRDNSKNTLYLQMNSLRAEDTAVYYCARDNWDAMDYWGQGTLVTVSS VL: DIQMTQSPSSLSASVGDRVTITCRSSQSLVHNNANTYLHWYQQKPGKAPKLLIYKVSNRFSGVPSRFSGSGSGTDFTLTISSLQPEDFATYYCSQNTLVPWTFGQGTKVEIKR
–	–	–	–	–	56 nM	–	humanized anti-IgE/M1′ antibody 47H4.v4 (antibody, V domains shown, produced as IgG) VH: EVQLVESGGGLVQPGGSLRLSCAASGFTFSDYGIAWVRQAPGKGLEWVAFISDLAYTIYYADTVTGRFTISRDNSKNTLYLQMNSLRAEDTAVYYCARDNWDALDYWGQGTLVTVSS VL: DIQMTQSPSSLSASVGDRVTITCRSSQSLVHNNANTYLHWYQQKPGKAPKLLIYKVSNRFSGVPSRFSGSGSGTDFTLTISSLQPEDFATYYCSQNTLVPWTFGQGTKVEIKR
–	–	–	27 nM	–	–	8.8 nM	humanized anti-IgE/M1′ antibody 26A11.v16 (antibody, V domains shown, produced as IgG) VH: EVQLVESGGGLVQPGGSLRLSCAASGYTFTDYYIMWVRQAPGKGLEWVGDINPNNYDTSYNQKFKGRFTISADTSKNTAYLQMNSLRAEDTAVYYCASKAYWGQGTLVTVSS VL: DIQMTQSPSSLSASVGDRVTITCRSSQDISQSLNWYQQKPGKAPKLLIYSTSRLHSGVPSRFSGSGSGTDFTLTISSLQPEDFATYYCQQGHTLPWTFGQGTKVEIKR

The remaining lines, values behind:

Binder	Kd [1]	Kd [2]	IC50 [3]	IC50 [4]	Kd [5]	Kd [6]	Kd [7]
humanized anti-IgE/M1′ antibody 26A11.v1 (antibody, V domains shown, direct CDR graft, produced as IgG in 293 cells) VH: EVQLVESGGGLVQPGGSLRLSCAASGYTFTDYYMMWVRQAPGKGLEWVGDINPNNYDTSYNQKFKGRFTISADTSKNTAYLQMNSLRAEDTAVYYCASKAYWGQGTLVTVSS VL: DIQMTQSPSSLSASVGDRVTITCRSSQDISNSLNWYQQKPGKAPKLLIYSTSRLHSGVPSRFSGSGSGTDFTLTISSLQPEDFATYYCQQGHTLPWTFGQGTKVEIKR	–	9 nM	15 nM	19 nM	1.06 nM	0.2 nM	1.7 nM
humanized anti-IgE/M1′ antibody 26A11.v4 (antibody, V domains shown, produced as IgG) VH: EVQLVESGGGLVQPGGSLRLSCAASGYTFTDYYIMWVRQAPGKGLEWVGDINPNNYDTSYNQKFKGRFTISADTSKNTAYLQMNSLRAEDTAVYYCASKAYWGQGTLVTVSS VL: DIQMTQSPSSLSASVGDRVTITCRSSQDISNSLNWYQQKPGKAPKLLIYSTSRLHSGVPSRFSGSGSGTDFTLTISSLQPEDFATYYCQQGHTLPWTFGQGTKVEIKR	–	–	20 nM	29 nM	–	0.9 nM	–
humanized anti-IgE/M1′ antibody 26A11.v15 (antibody, V domains shown, produced as IgG) VH: EVQLVESGGGLVQPGGSLRLSCAASGYTFTDYYIMWVRQAPGKGLEWVGDINPNNYDTSYNQKFKGRFTISADTSKNTAYLQMNSLRAEDTAVYYCASKAYWGQGTLVTVSS VL: DIQMTQSPSSLSASVGDRVTITCRSSQDISSSLNWYQQKPGKAPKLLIYSTSRLHSGVPSRFSGSGSGTDFTLTISSLQPEDFATYYCQQGHTLPWTFGQGTKVEIKR	–	–	–	32 nM	–	–	8.4 nM
humanized anti-IgE/M1′ antibody 26A11.v5 (antibody, V domains shown, produced as IgG) VH: EVQLVESGGGLVQPGGSLRLSCAASGYTFTDYYIMWVRQAPGKGLEWVGDINPNNYDTSYNQKFKGRFTISADTSKNTAYLQMNSLRAEDTAVYYCASKAYWGQGTLVTVSS VL: DIQMTQSPSSLSASVGDRVTITCRSSQDISNALNWYQQKPGKAPKLLIYSTSRLHSGVPSRFSGSGSGTDFTLTISSLQPEDFATYYCQQGHTLPWTFGQGTKVEIKR	–	–	25 nM	35 nM	–	–	–
humanized anti-IgE/M1′ antibody 26A11.v2 (antibody, V domains shown, produced as IgG) VH: EVQLVESGGGLVQPGGSLRLSCAASGYTFTDYYMMWVRQAPGKGLEWVGDINPNNYDTSYNQKFKGRFTISADTSKNTAYLQMNSLRAEDTAVYYCASKAYWGQGTLVTVSS VL: DIQMTQSPSSLSASVGDRVTITCRSSQDISNALNWYQQKPGKAPKLLIYSTSRLHSGVPSRFSGSGSGTDFTLTISSLQPEDFATYYCQQGHTLPWTFGQGTKVEIKR	–	–	18 nM	–	–	0.3 nM	–
humanized anti-IgE/M1′ antibody 26A11.v13 (antibody, V domains shown, produced as IgG) VH: EVQLVESGGGLVQPGGSLRLSCAASGYTFTDYYMMWVRQAPGKGLEWVGDINPNNYDTSYNQKFKGRFTISADTSKNTAYLQMNSLRAEDTAVYYCASKAYWGQGTLVTVSS VL: DIQMTQSPSSLSASVGDRVTITCRSSQDISSSLNWYQQKPGKAPKLLIYSTSRLHSGVPSRFSGSGSGTDFTLTISSLQPEDFATYYCQQGHTLPWTFGQGTKVEIKR	–	–	–	19 nM	–	–	4 nM
humanized anti-IgE/M1′ antibody 26A11.v3 (antibody, V domains shown, produced as IgG) VH: EVQLVESGGGLVQPGGSLRLSCAASGYTFTDYYMMWVRQAPGKGLEWVGDINPNNYDTSYNQKFKGRFTISADTSKNTAYLQMNSLRAEDTAVYYCASKAYWGQGTLVTVSS VL: DIQMTQSPSSLSASVGDRVTITCRSSQDISNYLNWYQQKPGKAPKLLIYSTSRLHSGVPSRFSGSGSGTDFTLTISSLQPEDFATYYCQQGHTLPWTFGQGTKVEIKR	–	–	10 nM	22 nM	–	< 0.05 nM	2.8 nM
humanized anti-IgE/M1′ antibody 26A11.v14 (antibody, V domains shown, produced as IgG) VH: EVQLVESGGGLVQPGGSLRLSCAASGYTFTDYYMMWVRQAPGKGLEWVGDINPNNYDTSYNQKFKGRFTISADTSKNTAYLQMNSLRAEDTAVYYCASKAYWGQGTLVTVSS VL: DIQMTQSPSSLSASVGDRVTITCRSSQDISQSLNWYQQKPGKAPKLLIYSTSRLHSGVPSRFSGSGSGTDFTLTISSLQPEDFATYYCQQGHTLPWTFGQGTKVEIKR	–	–	–	19 nM	1.5 nM	–	3.9 nM
